Experimental data taken from paper PMC8532174.

Target: NS3h_2a(JFH1) helicase, wild type (Hepatitis C virus genotype 2a, isolate …, UniProt Q99IB8 1196-1661)
Test: fluorescence polarization

Sequence of NS3h_2a(JFH1) helicase, wild type (Q99IB8 1196-1661): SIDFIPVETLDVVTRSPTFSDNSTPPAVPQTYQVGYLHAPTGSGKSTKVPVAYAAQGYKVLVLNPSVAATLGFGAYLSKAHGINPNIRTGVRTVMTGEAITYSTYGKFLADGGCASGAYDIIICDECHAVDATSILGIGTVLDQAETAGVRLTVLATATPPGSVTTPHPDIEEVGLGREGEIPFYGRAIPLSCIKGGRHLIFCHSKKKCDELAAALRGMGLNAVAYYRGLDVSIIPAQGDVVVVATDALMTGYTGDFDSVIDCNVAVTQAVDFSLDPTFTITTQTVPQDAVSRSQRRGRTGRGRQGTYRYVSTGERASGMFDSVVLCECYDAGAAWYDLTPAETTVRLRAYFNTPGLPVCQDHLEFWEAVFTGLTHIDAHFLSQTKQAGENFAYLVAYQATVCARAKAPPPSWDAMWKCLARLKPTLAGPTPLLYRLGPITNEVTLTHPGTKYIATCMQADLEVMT

## TTTTTTTTTTTTTTT (ssDNA) [Cy5-dT15]
  binding result: binds
